Values joined by “and” are separate entries in the source; they are usually repeats but may differ in a detail not shown here. Identical values can stand only once. Like-named read-outs stand apart in the source and are kept apart here.

The test system of data set [1] is BALB/c mice. The experiment in a line: Acute toxicity of PAP, single i.v. injection. It is filed as in vivo. The method, then:
Female BALB/c mice weighing approximately 20 grams were given a single intravenous injection of purified PAP (Lot #P-1993) via the tail vein. Eight different doses were used ranging from 10 μg to 175 μg and each dose was tested in 5 mice. Mice were monitored for 30 days for morbidity and mortality. […] This non-toxic dose is >90-fold higher than the highest PAP dose that will be given to patients as a TXU-7 antibody conjugate. Deaths were observed only in the groups receiving 150 μg/20 g mouse (=7.5 mg/kg) or higher doses.

For data set [2], the system named is ribosomes (nuclease-treated rabbit reticulocyte lysate). The experiment in a line: Cell-free protein synthesis inhibition assay (rabbit reticulocyte cell-free translation). It is filed as biochemical. The method, then: The ribosome-inhibiting activity of PAP was analyzed in a cell-free translation system obtained in kit form from Promega Biotec, Inc. (Madison, Wis.) and based on a method developed by Pelham and Jackson. Pelham et al., Eur. J. Biochem., 67, 247 (1976). This system consists of the following: nuclease-treated rabbit reticulocyte lysate (35 μL), 1 mM animo acid mixture minus leucine (1 μl), [^3H] leucine (183 Ci/mmol, 1 mCi/mL, Amersham Corp., Arlington Hts, Ill.), 5 μl of brome mosaic virus RNA (2 μL of 0.5 μg/μL stock), and water or buffer to bring the final volume to 50 μL per assay tube. Samples are diluted in PBS and 2.5-5 μL amounts were added to the lysate. Control samples minus toxin were set up in triplicate. At 0 hr (immediately after adding [^3H]-leucine and RNA and mixing gently to start the reaction), 10 μL aliquots were removed from the control and mixed with 1 mL 1 N NaOH to stop the reaction. The control toxin-treated samples were incubated an additional 60 minutes at 37° C., at which time 10 μL samples were again removed to NaOH, mixed, and 50 μL of 30% H2O2 added to decolorize the samples.
Following 10 minutes incubation at 37° C., the tubes were transferred to an ice bath and 2 mL of cold 4% casamino acids followed by 2 mL of cold 50% trichioroacetic acid (TCA) were added to precipitate the synthesized protein. After 30 minutes on ice, the samples were filtered through GF/F glass microfiber filters (Whatman, Hillsboro, Oreg.). The extent of protein synthesis inactivation is determined as percent control response=100 ×([^3H]-leucine incorporation [mean cpm at t60′−mean cpm at t0] for the toxin-treated samples)/([^3H]-leucine incorporation [mean cpm at t60′−mean cpm at t0] for the untreated control).

B1: PAP: 29 kDa ribosome-inactivating protein from spring leaves of pokeweed (Phytolacca americana) (protein)
chain: VNTIIYNVGSTTISKYATFLNDLRNEAKDPSLKCYGIPMLPNTNTNPKYVLVELQGSNKKTITLMLRRNNLYVMGYSDPFETNKCRYHIFNDISGTERQDVETTLCPNANSRVSKNINFDSRYPTLESKAGVKSRSQVQLGIQILDSNIGKISGVMSFTEKTEAEFLLVAIQMVSEAARFKYIENQVKTNFNRAFNPNPKVLNLQETWGKISTAIHDAKNGVLPKPLELVDASGAKWIVLRVDEIKPDVALLNYVGGSCQTTY
Regarding B1, the “non-toxic dose relative to highest PAP dose to be given to patients as conjugate” value in data set [1] (100 μg/20 g mouse dose) is on record as above 90 fold. Besides, the “lethal dose relative to highest PAP dose to be given to patients as TXU-7-PAP” value in data set [1] (150 μg/20 g mouse dose) was above 60 fold. In addition, the “Acute Toxicity in Mice LD50 (i.v.)” value in data set [1] (i.v.) is reported as “LD50 (i.v.) 150 mg/mouse”. For the same molecule, in data set [2] (purified PAP batches (n=6)), the “IC (mean SE) value, ribosome inhibitory activity (first IC value)” value is 0.34 ± 0.06 ng/mL; the “IC value, ribosome inhibitory activity (second IC value)” value was 3.7±1.1 ng/mL and 130.37 pM. For the same molecule, the IC50 in data set [2] (purified PAP batches (n=6), read-out: IC value, ribosome inhibitory activity (first IC value)) is 0.0122 nM. Besides, in data set [2] (range over PAP batches (n=6)), the “range of first IC value” was 0.17 to 0.58 ng/mL; the “range of second IC value” is 0.63-7.5 ng/mL and 22-263 pM. For the same molecule, in data set [2] (range over PAP batches (n=6), read-out: range of first IC value), the IC50 was 0.006 to 0.02 nM.

Values taken from patent publication US6689362B1, “Method for treating T-lineage leukemias and lymphomas using a CD7-specific monoclonal antibody (TXU-7) linked to the pokeweed antiviral protein (PAP)” (priority 1997, dated 2004).
